Measured values from CN117088975A.

Target: ALB蛋白(天然提取)
Assay: AMC sensor, antibody immobilised at 10 ug/ml, ALB in gradient dilution in PBST

Kd: 32.4 nM | koff: 0.000483 s⁻¹ | kon: 14900 M⁻¹ s⁻¹
Substance: 对照 (antibody)
